According to patent US20240279278A1, “NMU RECEPTOR 2 AGONISTS” (Boehringer Ingelheim International GmbH, priority 2023, published 2024):
Starred links: 1 amine or outer side, 2 acyl side, 3 side chain; linkers in the order of their positions; H or OH if unused. Non-standard residues stand in square brackets, D forms with d. *: point of attachment. Pipz(1-CH2CO,4-CH2CH2NH) = O=C(CN1CCN(CCN[*:1])CC1)[*:2]; C18 diacid = O=C(O)CCCCCCCCCCCCCCCCC(=O)*; γGlu = O=C(O)[C@H](CCC(=O)[*:2])N[*:1]; 2Pal = N[C@@H](Cc1ccccn1)C(=O)O; 3Pal = N[C@@H](Cc1cccnc1)C(=O)O; 4Pal = N[C@@H](Cc1ccncc1)C(=O)O; NMeL = CN[C@@H](CC(C)C)C(=O)O; NMeA = CN[C@@H](C)C(=O)O; Nle = CCCC[C@H](N)C(=O)O; Sar = CNCC(=O)O

T1: human neuromedin U receptor 1 (human, UniProt Q9HB89 24-426)
T1 sequence (looked up): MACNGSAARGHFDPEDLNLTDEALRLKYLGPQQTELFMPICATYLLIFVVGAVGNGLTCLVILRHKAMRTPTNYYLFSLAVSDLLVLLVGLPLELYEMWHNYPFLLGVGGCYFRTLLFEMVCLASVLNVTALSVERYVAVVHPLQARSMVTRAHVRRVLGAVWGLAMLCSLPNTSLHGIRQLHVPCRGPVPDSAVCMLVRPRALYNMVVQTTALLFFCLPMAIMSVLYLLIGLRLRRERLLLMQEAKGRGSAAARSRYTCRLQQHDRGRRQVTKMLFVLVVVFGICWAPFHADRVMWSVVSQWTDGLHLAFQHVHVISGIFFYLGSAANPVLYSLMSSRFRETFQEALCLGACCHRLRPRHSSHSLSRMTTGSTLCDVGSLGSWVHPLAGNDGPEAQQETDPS

B1: C18DA-gGlu3-Sar15-AEPipAc-Tyr-Phe-NMeLeu-Nle-2Pal-Pro-Arg-Gly-NH2 (peptide)
peptide: {C18 diacid}-[γGlu][γGlu][γGlu][Sar][Sar][Sar][Sar][Sar][Sar][Sar][Sar][Sar][Sar][Sar][Sar][Sar][Sar][Sar][Pipz(1-CH2CO,4-CH2CH2NH)]YF[NMeL][Nle][2Pal]PRG-NH2
SMILES: CCCC[C@H](NC(=O)[C@H](CC(C)C)N(C)C(=O)[C@H](Cc1ccccc1)NC(=O)[C@H](Cc1ccc(O)cc1)NC(=O)CN1CCN(CCNC(=O)CN(C)C(=O)CN(C)C(=O)CN(C)C(=O)CN(C)C(=O)CN(C)C(=O)CN(C)C(=O)CN(C)C(=O)CN(C)C(=O)CN(C)C(=O)CN(C)C(=O)CN(C)C(=O)CN(C)C(=O)CN(C)C(=O)CN(C)C(=O)CN(C)C(=O)CC[C@H](NC(=O)CC[C@H](NC(=O)CC[C@H](NC(=O)CCCCCCCCCCCCCCCCC(=O)O)C(=O)O)C(=O)O)C(=O)O)CC1)C(=O)N[C@@H](Cc1ccccn1)C(=O)N1CCC[C@H]1C(=O)N[C@@H](CCCNC(=N)N)C(=O)NCC(N)=O
B2: C18DA-gGlu3-Sar15-AEPipAc-Tyr-Phe-NMeLeu-Nle-His-NMeAla-Arg-Gly-NH2 (peptide)
peptide: EEEXXXXXXXXXXXXXXXXYFLXHARG
HELM: PEPTIDE1{[O=C(O)CCCCCCCCCCCCCCCCC(=O)[*:2]].[gGlu].[gGlu].[gGlu].[Sar].[Sar].[Sar].[Sar].[Sar].[Sar].[Sar].[Sar].[Sar].[Sar].[Sar].[Sar].[Sar].[Sar].[Sar].[O=C(CN1CCN(CCN[*:1])CC1)[*:2]].Y.F.[meL].[Nle].H.[meA].R.G.[am]}$$$$V2.0
SMILES: CCCC[C@H](NC(=O)[C@H](CC(C)C)N(C)C(=O)[C@H](Cc1ccccc1)NC(=O)[C@H](Cc1ccc(O)cc1)NC(=O)CN1CCN(CCNC(=O)CN(C)C(=O)CN(C)C(=O)CN(C)C(=O)CN(C)C(=O)CN(C)C(=O)CN(C)C(=O)CN(C)C(=O)CN(C)C(=O)CN(C)C(=O)CN(C)C(=O)CN(C)C(=O)CN(C)C(=O)CN(C)C(=O)CN(C)C(=O)CN(C)C(=O)CC[C@H](NC(=O)CC[C@H](NC(=O)CC[C@H](NC(=O)CCCCCCCCCCCCCCCCC(=O)O)C(=O)O)C(=O)O)C(=O)O)CC1)C(=O)N[C@@H](Cc1c[nH]cn1)C(=O)N(C)[C@@H](C)C(=O)N[C@@H](CCCNC(=N)N)C(=O)NCC(N)=O
B3: C18DA-gGlu3-Sar15-AEPipAc-Tyr-Phe-NMeLeu-Nle-3Pal-Pro-Arg-Gly-NH2 (peptide)
peptide: {C18 diacid}-[γGlu][γGlu][γGlu][Sar][Sar][Sar][Sar][Sar][Sar][Sar][Sar][Sar][Sar][Sar][Sar][Sar][Sar][Sar][Pipz(1-CH2CO,4-CH2CH2NH)]YF[NMeL][Nle][3Pal]PRG-NH2
SMILES: CCCC[C@H](NC(=O)[C@H](CC(C)C)N(C)C(=O)[C@H](Cc1ccccc1)NC(=O)[C@H](Cc1ccc(O)cc1)NC(=O)CN1CCN(CCNC(=O)CN(C)C(=O)CN(C)C(=O)CN(C)C(=O)CN(C)C(=O)CN(C)C(=O)CN(C)C(=O)CN(C)C(=O)CN(C)C(=O)CN(C)C(=O)CN(C)C(=O)CN(C)C(=O)CN(C)C(=O)CN(C)C(=O)CN(C)C(=O)CN(C)C(=O)CC[C@H](NC(=O)CC[C@H](NC(=O)CC[C@H](NC(=O)CCCCCCCCCCCCCCCCC(=O)O)C(=O)O)C(=O)O)C(=O)O)CC1)C(=O)N[C@@H](Cc1cccnc1)C(=O)N1CCC[C@H]1C(=O)N[C@@H](CCCNC(=N)N)C(=O)NCC(N)=O
B4: C18DA-gGlu3-Sar15-AEPipAc-Tyr-Phe-NMeLeu-Nle-4Pal-NMeAla-Arg-Gly-NH2 (peptide)
peptide: {C18 diacid}-[γGlu][γGlu][γGlu][Sar][Sar][Sar][Sar][Sar][Sar][Sar][Sar][Sar][Sar][Sar][Sar][Sar][Sar][Sar][Pipz(1-CH2CO,4-CH2CH2NH)]YF[NMeL][Nle][4Pal][NMeA]RG-NH2
SMILES: CCCC[C@H](NC(=O)[C@H](CC(C)C)N(C)C(=O)[C@H](Cc1ccccc1)NC(=O)[C@H](Cc1ccc(O)cc1)NC(=O)CN1CCN(CCNC(=O)CN(C)C(=O)CN(C)C(=O)CN(C)C(=O)CN(C)C(=O)CN(C)C(=O)CN(C)C(=O)CN(C)C(=O)CN(C)C(=O)CN(C)C(=O)CN(C)C(=O)CN(C)C(=O)CN(C)C(=O)CN(C)C(=O)CN(C)C(=O)CN(C)C(=O)CC[C@H](NC(=O)CC[C@H](NC(=O)CC[C@H](NC(=O)CCCCCCCCCCCCCCCCC(=O)O)C(=O)O)C(=O)O)C(=O)O)CC1)C(=O)N[C@@H](Cc1ccncc1)C(=O)N(C)[C@@H](C)C(=O)N[C@@H](CCCNC(=N)N)C(=O)NCC(N)=O
B5: C18DA-gGlu3-Sar15-AEPipAc-Tyr-Phe-NMeLeu-Nle-3Pal-NMeAla-Arg-Gly-NH2 (peptide)
peptide: {C18 diacid}-[γGlu][γGlu][γGlu][Sar][Sar][Sar][Sar][Sar][Sar][Sar][Sar][Sar][Sar][Sar][Sar][Sar][Sar][Sar][Pipz(1-CH2CO,4-CH2CH2NH)]YF[NMeL][Nle][3Pal][NMeA]RG-NH2
SMILES: CCCC[C@H](NC(=O)[C@H](CC(C)C)N(C)C(=O)[C@H](Cc1ccccc1)NC(=O)[C@H](Cc1ccc(O)cc1)NC(=O)CN1CCN(CCNC(=O)CN(C)C(=O)CN(C)C(=O)CN(C)C(=O)CN(C)C(=O)CN(C)C(=O)CN(C)C(=O)CN(C)C(=O)CN(C)C(=O)CN(C)C(=O)CN(C)C(=O)CN(C)C(=O)CN(C)C(=O)CN(C)C(=O)CN(C)C(=O)CN(C)C(=O)CC[C@H](NC(=O)CC[C@H](NC(=O)CC[C@H](NC(=O)CCCCCCCCCCCCCCCCC(=O)O)C(=O)O)C(=O)O)C(=O)O)CC1)C(=O)N[C@@H](Cc1cccnc1)C(=O)N(C)[C@@H](C)C(=O)N[C@@H](CCCNC(=N)N)C(=O)NCC(N)=O
B6: C18DA-gGlu3-Sar15-AEPipAc-Tyr-Phe-NMeLeu-Nle-His-Pro-Arg-Gly-NH2 (peptide)
peptide: EEEXXXXXXXXXXXXXXXXYFLXHPRG
HELM: PEPTIDE1{[O=C(O)CCCCCCCCCCCCCCCCC(=O)[*:2]].[gGlu].[gGlu].[gGlu].[Sar].[Sar].[Sar].[Sar].[Sar].[Sar].[Sar].[Sar].[Sar].[Sar].[Sar].[Sar].[Sar].[Sar].[Sar].[O=C(CN1CCN(CCN[*:1])CC1)[*:2]].Y.F.[meL].[Nle].H.P.R.G.[am]}$$$$V2.0
SMILES: CCCC[C@H](NC(=O)[C@H](CC(C)C)N(C)C(=O)[C@H](Cc1ccccc1)NC(=O)[C@H](Cc1ccc(O)cc1)NC(=O)CN1CCN(CCNC(=O)CN(C)C(=O)CN(C)C(=O)CN(C)C(=O)CN(C)C(=O)CN(C)C(=O)CN(C)C(=O)CN(C)C(=O)CN(C)C(=O)CN(C)C(=O)CN(C)C(=O)CN(C)C(=O)CN(C)C(=O)CN(C)C(=O)CN(C)C(=O)CN(C)C(=O)CC[C@H](NC(=O)CC[C@H](NC(=O)CC[C@H](NC(=O)CCCCCCCCCCCCCCCCC(=O)O)C(=O)O)C(=O)O)C(=O)O)CC1)C(=O)N[C@@H](Cc1c[nH]cn1)C(=O)N1CCC[C@H]1C(=O)N[C@@H](CCCNC(=N)N)C(=O)NCC(N)=O
B7: C18DA-gGlu3-Sar15-AEPipAc-Tyr-Phe-NMeLeu-Nle-NMeArg-NMeAla-Arg-Gly-NH2 (peptide)
peptide: EEEXXXXXXXXXXXXXXXXYFLXRARG
HELM: PEPTIDE1{[O=C(O)CCCCCCCCCCCCCCCCC(=O)[*:2]].[gGlu].[gGlu].[gGlu].[Sar].[Sar].[Sar].[Sar].[Sar].[Sar].[Sar].[Sar].[Sar].[Sar].[Sar].[Sar].[Sar].[Sar].[Sar].[O=C(CN1CCN(CCN[*:1])CC1)[*:2]].Y.F.[meL].[Nle].[meR].[meA].R.G.[am]}$$$$V2.0
SMILES: CCCC[C@H](NC(=O)[C@H](CC(C)C)N(C)C(=O)[C@H](Cc1ccccc1)NC(=O)[C@H](Cc1ccc(O)cc1)NC(=O)CN1CCN(CCNC(=O)CN(C)C(=O)CN(C)C(=O)CN(C)C(=O)CN(C)C(=O)CN(C)C(=O)CN(C)C(=O)CN(C)C(=O)CN(C)C(=O)CN(C)C(=O)CN(C)C(=O)CN(C)C(=O)CN(C)C(=O)CN(C)C(=O)CN(C)C(=O)CN(C)C(=O)CC[C@H](NC(=O)CC[C@H](NC(=O)CC[C@H](NC(=O)CCCCCCCCCCCCCCCCC(=O)O)C(=O)O)C(=O)O)C(=O)O)CC1)C(=O)N(C)[C@@H](CCCNC(=N)N)C(=O)N(C)[C@@H](C)C(=O)N[C@@H](CCCNC(=N)N)C(=O)NCC(N)=O
B8: C18DA-gGlu3-Sar15-AEPipAc-Tyr-Phe-NMeLeu-Nle-NMeArg-Pro-Arg-Gly-NH2 (peptide)
peptide: EEEXXXXXXXXXXXXXXXXYFLXRPRG
HELM: PEPTIDE1{[O=C(O)CCCCCCCCCCCCCCCCC(=O)[*:2]].[gGlu].[gGlu].[gGlu].[Sar].[Sar].[Sar].[Sar].[Sar].[Sar].[Sar].[Sar].[Sar].[Sar].[Sar].[Sar].[Sar].[Sar].[Sar].[O=C(CN1CCN(CCN[*:1])CC1)[*:2]].Y.F.[meL].[Nle].[meR].P.R.G.[am]}$$$$V2.0
SMILES: CCCC[C@H](NC(=O)[C@H](CC(C)C)N(C)C(=O)[C@H](Cc1ccccc1)NC(=O)[C@H](Cc1ccc(O)cc1)NC(=O)CN1CCN(CCNC(=O)CN(C)C(=O)CN(C)C(=O)CN(C)C(=O)CN(C)C(=O)CN(C)C(=O)CN(C)C(=O)CN(C)C(=O)CN(C)C(=O)CN(C)C(=O)CN(C)C(=O)CN(C)C(=O)CN(C)C(=O)CN(C)C(=O)CN(C)C(=O)CN(C)C(=O)CC[C@H](NC(=O)CC[C@H](NC(=O)CC[C@H](NC(=O)CCCCCCCCCCCCCCCCC(=O)O)C(=O)O)C(=O)O)C(=O)O)CC1)C(=O)N(C)[C@@H](CCCNC(=N)N)C(=O)N1CCC[C@H]1C(=O)N[C@@H](CCCNC(=N)N)C(=O)NCC(N)=O

Target: T1, human neuromedin U receptor 1
Assay: cell-based or functional assay

Question: Which “EC50 (hNMUR1) buffer” value does the source give for B1 here?
Answer: > 1000 nM

Question: With B2 as the binder, how does the “EC50 (hNMUR1) buffer” value read?
Answer: > 1000 nM

Question: For B3, which “EC50 (hNMUR1) buffer” value is on record?
Answer: > 1000 nM

Question: How did the “EC50 (hNMUR1) buffer” value turn out when B4 was run?
Answer: > 1000 nM

Question: How did the “EC50 (hNMUR1) buffer” value turn out when B5 was run?
Answer: > 1000 nM

Question: For B6, which “EC50 (hNMUR1) buffer” value is on record?
Answer: > 1000 nM

Question: For B7, which “EC50 (hNMUR1) buffer” value is on record?
Answer: 1300 nM

Question: Which “EC50 (hNMUR1) buffer” value does the source give for B8 here?
Answer: 200 nM
